Data on 3 molecules can be found in publication PMC2172055 (The Journal of Cell Biology, 2004).

In one test the target is Sec61α (canine (endogenous in MDCK), UniProt P38377 1-476). Briefly: FRET or BRET. (In general: Bioluminescence resonance energy transfer reports proximity on the nanometre scale.)
In a further test the target is Sec61β (canine (endogenous in MDCK), UniProt P60467 1-96). Briefly: FRET or BRET.
Sec61β, sequence (P60467 whole entry): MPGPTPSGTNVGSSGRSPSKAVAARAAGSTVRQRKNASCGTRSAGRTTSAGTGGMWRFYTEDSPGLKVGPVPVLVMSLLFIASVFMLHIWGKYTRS

Sec61α, sequence (P38377 whole entry): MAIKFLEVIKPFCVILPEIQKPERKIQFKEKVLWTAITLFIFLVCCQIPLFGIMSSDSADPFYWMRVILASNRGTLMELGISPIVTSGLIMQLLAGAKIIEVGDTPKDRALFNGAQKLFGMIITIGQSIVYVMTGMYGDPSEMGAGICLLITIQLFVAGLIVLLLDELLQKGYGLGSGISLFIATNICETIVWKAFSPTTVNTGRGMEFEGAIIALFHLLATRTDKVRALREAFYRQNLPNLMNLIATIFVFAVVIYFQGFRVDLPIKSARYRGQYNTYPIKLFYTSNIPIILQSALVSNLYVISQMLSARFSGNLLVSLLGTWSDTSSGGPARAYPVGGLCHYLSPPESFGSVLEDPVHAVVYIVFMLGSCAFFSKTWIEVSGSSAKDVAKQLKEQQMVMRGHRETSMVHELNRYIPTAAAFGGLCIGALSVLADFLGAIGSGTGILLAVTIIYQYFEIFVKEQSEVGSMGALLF

B1: TRAPα (natural protein)
chain: GPGGSLVAAQDLTEDEETVEDSIIEDEDDEAEVEEDEPTDLAEDKEEEDVSGEPEASPSADTTILFVKGEDFPANNIVKFLVGFTNKGTEDFIVESLDASFRYPQDYQFYIQNFTALPLNTVVPPQRQATFEYSFIPAEPMGGRPFGLVINLNYKDLNGNVFQDAVFNQTVTIIEREDGLDGETIFMYMFLAGLGLLVVVGLHQLLESRKRKRPIQKVEMGTSSQNDVDMSWIPQETLNQINKASPRRLPRKRAQKRSVGSDE
For the molecule B1, in the test with Sec61α, the “FRET efficiency (pactamycin-treated cells)” value came to 15.2%, the “FRET efficiency (puromycin-treated cells)” value was 13.6% and the “FRET efficiency (untreated cells)” value turned out to be 18.4%. In addition, in the test with Sec61β, the “FRET efficiency (pactamycin-treated cells)” value was 11.8%, the “FRET efficiency (puromycin-treated cells)” value worked out at 11.1% and the “FRET efficiency (untreated cells)” value was 13.6%.

B2: SRα (natural protein)
chain: MLDFFTIFSKGGLVLWCFQGVSDSCTGPVNALIRSVLLQERGGNNSFTHEALTLKYKLDNQFELVFVVGFQKILTLTYVDKLIDDVHRLFRDKYRTEIQQQSALSLLNGTFDFQNDFLRLLREREESSKIRAPTTMKKFEDSEKAKKPVRSMIETRGEKPKEKAKNSKKKGAKKESSDGPLATGKAVPAEKSGLPAGPENGVELSKEELIRRKREEFIQKHGRGLEKSSKSTKSDAPKEKGKKAPRVWALGGCANKEVLDYSAPTTNGAPDAAPPEDINLIRGTGPGGQLQDLDCSSSDDEETAQNASKPSATKGTLGGMFGMLKGLVGSKSLSREDMESVLDKMRDHLIAKNVAADIAVQLCESVANKLEGKVMGTFSTVTSTVKQALQESLVQILQPQRRVDMLRDIMDAQRHQRPYVVTFCGVNGVGKSTNLAKISFWLLENGFSVLIAACDTFRAGAVEHVRTHTRRLSALHPPEKHAGPTMVQLFEKGYGKDAAGIAMEAIAFARNQGFDVVLVDTAGRMQDNAPLMTALAKLITVNTPDLVLFVGEALVGNEAVDQLVKFNRALADHSMAQTPRLIDGIVLTKFDTIDDKVGAAISMTYITSKPIVFVGTGQTYCDLRSLNAKAVVAALMKA
Turning to B2, in the test with Sec61α, the “FRET efficiency (pactamycin-treated cells)” value is 32.2%, the “FRET efficiency (puromycin-treated cells)” value is 31.6% and the “FRET efficiency (untreated cells)” value came to 34.1%. Moreover, in the test with Sec61β, the “FRET efficiency (pactamycin-treated cells)” value came to 18.8%, the “FRET efficiency (puromycin-treated cells)” value was 17.2% and the “FRET efficiency (untreated cells)” value is 16%.

B3: TRAM (natural protein)
chain: MAIRKKSTKSPPVLSHEFILQNHADIVSCVAMVFLLGLMFEITAKASIIFVTLQYNVTLPATEEQATESTSLYYYGIKDLATVFFYMLVAIIIHAIIQEYVLDKINRRMHFSKTKHSKFNESGQLSAFYLFSCIWGTFILISENYISDPTILWRAYPHNLMTFQMKFFYIAQLAYWFHAFPELYFQKTKKEDIPRQLVYIGLYLFHIAGAYLLNLNHLGLVLLVLHYFVEFLFHISRLFYFSDEKYQKGFSLWAVLFVLGRLLTLILSVLTVGFGLARAENQKLDFSAGNFNVLAVRIAVLASICITQAFMMWKFINFQLRRWREHSTFQAPVVKKKPTVTKGRSSRKGTENGVNGTVTSNGADSPRNRKEKSS
For the molecule B3, in the test with Sec61α, the “FRET efficiency (pactamycin-treated cells)” value worked out at 19.7%, the “FRET efficiency (puromycin-treated cells)” value worked out at 19.8% and the “FRET efficiency (untreated cells)” value stood at 17.6%. For the same molecule, in the test with Sec61β, the “FRET efficiency (pactamycin-treated cells)” value came out at 10.4%, the “FRET efficiency (puromycin-treated cells)” value worked out at 11.9% and the “FRET efficiency (untreated cells)” value was found to be 12.8%.
